Experimental data: the supplement of paper PMC10598134
± gives the standard deviation.

Test: collision cross section of modified peptide (TIMS, N2, iRT-aligned); higher = larger / more extended gas-phase ion
How it was run: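 Collision cross section was derived from the Mason-Schamp equation. Each value averages 1–3 technical replicates of the most abundant feature per charge state, measured on a timsTOF Pro/HT in dda-PASEF mode (nitrogen, ~2.4 mbar) after a 120-min nanoflow C18 gradient at 60 °C. Synthetic peptide pools (~100 fmol/µL in 2% acetonitrile/0.1% formic acid, iRT standard spiked 1:40) were identified with MaxQuant, and 1/K0 was calibrated with three reference ions and aligned run-wise to the median iRT peptide deviation.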

[1] = charge state: 2, modification: Biotin
[2] = charge state: 2, modification: GlyGly (K)
[3] = charge state: 3, modification: GlyGly (K)
[4] = charge state: 2, modification: Succinyl
[5] = charge state: 3, modification: hydroxyisobutyryl
[6] = charge state: 2, modification: hydroxyisobutyryl
[7] = charge state: 2, modification: Glutarylation
[8] = charge state: 3, modification: Glutarylation
[9] = charge state: 2, modification: Methyl (K)
[10] = charge state: 3, modification: Methyl (K)
[11] = charge state: 2, modification: Nitro (Y)
[12] = charge state: 2, modification: Crotonyl
[13] = charge state: 3, modification: Formyl
[14] = charge state: 2, modification: Formyl
[15] = charge state: 2, modification: Phospho (Y)
[16] = charge state: 3, modification: Crotonyl
[17] = charge state: 3, modification: Dimethyl (K)
[18] = charge state: 2, modification: Methyl (R)
[19] = charge state: 3, modification: Methyl (R)
[20] = charge state: 3, modification: Biotin
[21] = charge state: 2, modification: Malonyl
[22] = charge state: 2, modification: HexNAc (ST)
[23] = charge state: 3, modification: HexNAc (ST)
[24] = charge state: 2, modification: Dimethyl (K)
[25] = charge state: 2, modification: Butyryl
[26] = charge state: 2, modification: Propionyl
[27] = charge state: 3, modification: Butyryl

For ASEALLKQLK [_ASEALLK(Biotin)QLK_], the collision cross section [1] was 396.36 ± 2.2 Å².

With “IINEPTAAAIAYGLDKK [_IINEPTAAAIAYGLDK(GlyGly (K))K_]” the collision cross section [2] was 510.84 ± 1.5 Å² and the collision cross section [3] was 560.44 ± 1.9 Å².

With ASAISIKLGSSK [_ASAISIK(Succinyl)LGSSK_] the collision cross section [4] was 372.2 ± 0.24 Å².

For VFSIISSEKELK [_VFSIISSEK(Biotin)ELK_], the collision cross section [1] was 432.12 ± 1.1 Å².

“DSINFLDHINGKK [_DSINFLDHINGK(hydroxyisobutyryl)K_]” showed a collision cross section [5] of 468.17 ± 2.7 Å².

For “FLQEFYQDDELGKK [_FLQEFYQDDELGK(hydroxyisobutyryl)K_]”, the collision cross section [6] was 452.81 ± 0.81 Å² and the collision cross section [5] was 512.84 ± 1.6 Å².

With “LQAAYAGDKADDIQK [_LQAAYAGDK(Gluratylation)ADDIQK_]” the collision cross section [7] was 440.38 ± 0.95 Å² and the collision cross section [8] was 496.91 ± 1 Å².

For “VGIDTPDIDIHGPEGKLK [_VGIDTPDIDIHGPEGK(Methyl (K))LK_]”, the collision cross section [9] was 463.74 Å² and the collision cross section [10] was 542.59 ± 0.45 Å².

Work on DLEEAEEYK [_DLEEAEEY(Nitro (Y))K_] yielded a collision cross section [11] of 368.75 ± 2.1 Å².

With “SGKFTQQDIDEAK [_SGK(Crotonyl)FTQQDIDEAK_]” the collision cross section [12] was 419.28 ± 0.55 Å².

Work on ITGKNQVTATK [_ITGK(Biotin)NQVTATK_] yielded a collision cross section [1] of 389.13 ± 1.7 Å².

For “IHNAENIQPGEQKYEYK [_IHNAENIQPGEQK(Formyl)YEYK_]”, the collision cross section [13] was 518.35 ± 1.3 Å².

Work on TLDEILQEKK [_TLDEILQEK(Formyl)K_] yielded a collision cross section [14] of 372.98 ± 1.9 Å².

ASEALLKQLK [_ASEALLK(GlyGly (K))QLK_] showed a collision cross section [2] of 378.14 ± 0.54 Å² and a collision cross section [3] of 443.25 ± 0.74 Å².

In the case of “TFGKAAGPSLSHTSGGTQSK [_TFGK(Acetyl (K))AAGPSLSHTSGGTQSK_]”, the collision cross section (charge state: 2, modification: Acetyl (K)) is reported as 486.77 ± 4.6 Å² and the collision cross section (charge state: 3, modification: Acetyl (K)) is reported as 516.14 ± 6 Å².

In the case of YVGESEANIR [_Y(Phospho (Y))VGESEANIR_], the collision cross section [15] is reported as 370.09 ± 0.95 Å².

With “PASGAGAGAGAGKR [_PASGAGAGAGAGK(Crotonyl)R_]” the collision cross section [12] was 364.92 ± 9.9 Å² and the collision cross section [16] was 464.44 ± 2.8 Å².

“AYPLADAHLTK [_AY(Phospho (Y))PLADAHLTK_]” showed a collision cross section [15] of 380.31 ± 0.063 Å² and a collision cross section (charge state: 3, modification: Phospho (Y)) of 465.22 ± 1 Å².

Work on “IVEKYGYTHLSAGELLR [_IVEK(Dimethyl (K))YGYTHLSAGELLR_]” yielded a collision cross section [17] of 550.8 Å².

For “GRGTSQLAEGATAK [_GR(Methyl (R))GTSQLAEGATAK_]”, the collision cross section [18] was 391.78 ± 1.4 Å² and the collision cross section [19] was 464.6 ± 2.7 Å².

Work on TEVLSPNSKVESK [_TEVLSPNSK(Biotin)VESK_] yielded a collision cross section [1] of 425.18 ± 3.5 Å² and a collision cross section [20] of 487.32 ± 1.7 Å².

LSSETYSQAK [_LSSETY(Phospho (Y))SQAK_] showed a collision cross section [15] of 357.2 ± 0.065 Å².

Sequence LDHLAEKFR [_LDHLAEK(Propionyl)FR_] has a collision cross section (charge state: 3, modification: Propionyl) of 442.11 ± 0.59 Å².

With “SITHSTVGSKGEK [_SITHSTVGSK(Crotonyl)GEK_]” the collision cross section [12] was 402.71 ± 8.6 Å² and the collision cross section [16] was 442.34 ± 1.6 Å².

With “DASTLQSQKAEGTGDAK [_DASTLQSQK(Methyl (K))AEGTGDAK_]” the collision cross section [9] was 440.39 ± 1.8 Å² and the collision cross section [10] was 487.49 ± 2.4 Å².

Sequence YTTNNSSEQR [_Y(Nitro (Y))TTNNSSEQR_] has a collision cross section [11] of 355.01 ± 0.17 Å².

LDHLAEKFR [_LDHLAEK(Methyl (K))FR_] showed a collision cross section [9] of 368.51 ± 0.5 Å² and a collision cross section [10] of 450.7 ± 4.8 Å².

“GTISAPGKVVTAAAQAK [_GTISAPGK(hydroxyisobutyryl)VVTAAAQAK_]” gave a collision cross section [6] of 447.84 ± 0.78 Å² and a collision cross section [5] of 524.07 ± 2 Å².

For “DESFLGKLGGTLAR [_DESFLGK(Malonyl)LGGTLAR_]”, the collision cross section [21] was 413.79 ± 1.2 Å² and the collision cross section (charge state: 3, modification: Malonyl) was 487.95 Å².

In the case of LSEHATAPTR [_LSEHATAPT(HexNAc (ST))R_], the collision cross section [22] is reported as 370.75 ± 0.68 Å² and the collision cross section [23] is reported as 450.64 ± 0.17 Å².

For PLRAASPFR [_PLR(Methyl (R))AASPFR_], the collision cross section [18] was 351.73 ± 0.9 Å² and the collision cross section [19] was 447.48 ± 3.2 Å².

Sequence “VLTANSNPSSPSAAKR [_VLTANSNPSSPSAAK(Succinyl)R_]” has a collision cross section [4] of 430.61 ± 1.1 Å² and a collision cross section (charge state: 3, modification: Succinyl) of 526.23 ± 1.1 Å².

In the case of “GEAGPTGPQGEPGVR [_GEAGPTGPQGEP(Hydroxyproline)GVR_]”, the collision cross section (charge state: 2, modification: Hydroxyproline) is reported as 382.58 ± 0.36 Å².

“VDVEVPDVSLEGPEGKLK [_VDVEVPDVSLEGPEGK(Methyl (K))LK_]” gave a collision cross section [9] of 462.48 ± 7.8 Å² and a collision cross section [10] of 551.69 ± 1.3 Å².

In the case of LDHLAEKFR [_LDHLAEK(Gluratylation)FR_], the collision cross section [7] is reported as 375.69 ± 0.099 Å² and the collision cross section [8] is reported as 446.6 ± 1.7 Å².

In the case of “ESISVSSEQLAQFR [_ES(HexNAc (ST))ISVSSEQLAQFR_]”, the collision cross section [22] is reported as 438.25 Å².

Work on ITLSKHQNVQLPR [_ITLSK(Biotin)HQNVQLPR_] yielded a collision cross section [20] of 502.67 Å².

Work on “DSINFLDHINGKK [_DSINFLDHINGK(Crotonyl)K_]” yielded a collision cross section [16] of 467.81 Å².

Work on SYHLQIVTK [_SY(Nitro (Y))HLQIVTK_] yielded a collision cross section [11] of 345.14 ± 0.74 Å² and a collision cross section (charge state: 3, modification: Nitro (Y)) of 449.3 ± 1.2 Å².

“TEVLSPNSKVESK [_TEVLSPNSK(Methyl (K))VESK_]” gave a collision cross section [9] of 412.51 ± 2.6 Å² and a collision cross section [10] of 437.62 ± 4.3 Å².

“LEEVTGKLQVAR [_LEEVTGK(Trimethyl (K))LQVAR_]” gave a collision cross section (charge state: 2, modification: Trimethyl (K)) of 402.01 ± 1.1 Å² and a collision cross section (charge state: 3, modification: Trimethyl (K)) of 471.9 ± 1.5 Å².

In the case of “ITESVAETAQTIKK [_ITESVAETAQTIK(Gluratylation)K_]”, the collision cross section [7] is reported as 429.83 ± 0.97 Å² and the collision cross section [8] is reported as 514.64 ± 1.7 Å².

Work on VVDLLAPYAK [_VVDLLAPY(Phospho (Y))AK_] yielded a collision cross section [15] of 379.49 ± 0.074 Å².

“GGPGSTLSFVGKR [_GGPGSTLSFVGK(Dimethyl (K))R_]” showed a collision cross section [24] of 393.41 ± 0.79 Å² and a collision cross section [17] of 425.47 ± 2 Å².

SKLLFSNTAAQK [_SK(Butyryl)LLFSNTAAQK_] gave a collision cross section [25] of 402.3 ± 1.3 Å².

Work on SSFAYKDQNENR [_SSFAYK(Crotonyl)DQNENR_] yielded a collision cross section [12] of 403.46 ± 0.27 Å² and a collision cross section [16] of 461.83 ± 1.6 Å².

In the case of ASEALLKQLK [_ASEALLK(Propionyl)QLK_], the collision cross section [26] is reported as 375.9 ± 0.65 Å².

Sequence “IHNAENIQPGEQKYEYK [_IHNAENIQPGEQK(GlyGly (K))YEYK_]” has a collision cross section [3] of 529.6 ± 1.2 Å².

SSDLTDRVK [_S(HexNAc (ST))SDLTDRVK_] showed a collision cross section [22] of 362.74 ± 0.12 Å² and a collision cross section [23] of 449.63 ± 1.1 Å².

“SPSDSGYSYETIGKTTK [_SPSDSGYSYETIGK(Formyl)TTK_]” gave a collision cross section [14] of 446.06 ± 0.77 Å² and a collision cross section [13] of 518.69 ± 1.8 Å².

In the case of IISSIEQKEENK [_IISSIEQK(Biotin)EENK_], the collision cross section [1] is reported as 422.44 ± 3 Å² and the collision cross section [20] is reported as 481.73 ± 1.6 Å².

With “GFALVGVGSEASSKK [_GFALVGVGSEASSK(Propionyl)K_]” the collision cross section [26] was 411.51 Å².

“TGGTQTDLFTCGKCK [_TGGTQTDLFTCGK(Succinyl)CK_]” gave a collision cross section [4] of 437.09 Å².

Work on “SGNLTEDDKHNNAK [_SGNLTEDDK(hydroxyisobutyryl)HNNAK_]” yielded a collision cross section [6] of 427.86 ± 0.82 Å² and a collision cross section [5] of 488.54 ± 1.1 Å².

In the case of VIVGGSSEYK [_VIVGGSSEY(Nitro (Y))K_], the collision cross section [11] is reported as 344.24 ± 0.72 Å².

DHLSDKESK [_DHLSDK(Methyl (K))ESK_] gave a collision cross section [9] of 345.4 ± 1.5 Å² and a collision cross section [10] of 413.72 ± 4.7 Å².

“SGYSSPGSPGTPGSR [_SGYSSPGSPGTPGS(HexNAc (ST))R_]” showed a collision cross section [22] of 394.87 ± 0.13 Å².

“DSINFLDHINGKK [_DSINFLDHINGK(Butyryl)K_]” gave a collision cross section [27] of 471.81 Å².

DFDTALKHYDK [_DFDTALK(Formyl)HYDK_] showed a collision cross section [14] of 397.93 ± 1.3 Å² and a collision cross section [13] of 457.98 ± 2.1 Å².

“PLPVALQTRLAK [_PLPVALQTR(Methyl (R))LAK_]” showed a collision cross section [18] of 400.79 ± 0.32 Å² and a collision cross section [19] of 474 ± 2.6 Å².

Sequence “STGLELETPSLVPVKK [_STGLELETPSLVPVK(Crotonyl)K_]” has a collision cross section [12] of 437.59 Å² and a collision cross section [16] of 521.61 Å².

Sequence “ATVASSTQKFQDLGVK [_ATVASSTQK(Butyryl)FQDLGVK_]” has a collision cross section [25] of 453.04 ± 1.1 Å² and a collision cross section [27] of 495.56 ± 1.9 Å².

In the case of “IFDSEEILAGYK [_IFDSEEILAGY(Nitro (Y))K_]”, the collision cross section [11] is reported as 395.88 ± 0.18 Å².

“VLTANSNPSSPSAAKR [_VLTANSNPSSPSAAK(Formyl)R_]” showed a collision cross section [14] of 421.8 ± 0.8 Å² and a collision cross section [13] of 501.92 ± 27 Å².

Work on LGNDFHTNKR [_LGNDFHTNK(Malonyl)R_] yielded a collision cross section [21] of 378.38 Å².

“STGLELETPSLVPVKK [_STGLELETPSLVPVK(Dimethyl (K))K_]” gave a collision cross section [24] of 456.56 ± 2.3 Å² and a collision cross section [17] of 515.08 ± 1.7 Å².

With “VFIGNLNTLVVKKK [_VFIGNLNTLVVK(Gluratylation)KK_]” the collision cross section [8] was 521.05 ± 1.8 Å².
